Test results published in the RNAGym collection of RNA variant scans (doi:10.1073/pnas.2313332121).

B1: TPR t1 (parent)
chain: GACCAAUCUGCCCUCAGAGCUCGAGAACAUCUUCGGAUGCAGAGGAGGCAGGCUUCGGUGGCGCGAUAGCGCCAACGUCCUCAACCUCCAAUGCAUCCCACCACAUGAUGAUGCCUGAAGAGCCUUGGUUUUUUG

Variants of: B1
Test: polymerase ribozyme fitness, log enrichment relative to wild type (log ratio); higher = more active; in vitro selection for triplet polymerase activity
Procedure, shortened: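 The heterodimeric triplet polymerase ribozyme's subunits were each mutagenized into PCR-built libraries and transcribed. Every library was selected once, in triplicate, by annealing with a biotinylated primer, the partner subunit and triplets, incubating frozen at −7 °C, gel-excising extended constructs, capturing on streptavidin beads and running RT-PCR. Input and output libraries were Illumina-sequenced, with genotypes kept only at ≥10 input reads and ≥1 read per output. Fitness, from inverse-variance-weighted replicate averages, is the base-2 logarithm of genotype enrichment over wild-type enrichment.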

Variant	polymerase ribozyme fitness (log ratio)
G117A C123G	-1.9
G117C U130C	-2.84
G117C U130A	-5.1
U116G U130C	-2.14
A119G U131A	0.889
G122A U126A	-2.34
A119U G120U	-0.548
A119U G120C	1.55
G120A C124U	1.89
C123U U132A	2.23
G113U G120C G128U	-4.07
U129C U130A	-0.859
G113U G120C	-1.71
G120A U125A U126A G128A	0.067
C115A A118G	-0.852
A118G G120C	-0.275
C115U G120C C123A	0.543
A121G U131A	2.42
A121G U131G	1.36
A118G G135C	-0.273
G117C U133A	-4.07
G117C U133G	-3.89
G120A G127U	0.172
G120A G127A	-0.68

Variant	polymerase ribozyme fitness (log ratio)
C124G U132A	2.04
G120C G122A	-0.824
C115U A118C	-2.16
U116G G120C	-0.715
U116G G120U	-2.52
C114U G117U	-5.77
C114G G117A G135U	-6.72
C114A U133G	-1.84
G128A U133A	-3.85
C114A C123U G128U	-4.41
U129A U132C	-0.64
G117C U125A G135C	-4.9
A118U U130G	-0.458
C115U G127A	-3.15
G120C G128U	-0.74
G120A G135U	0.435
C123U U126A G135U	0.771
G120C G127A U134C	-2.55
U129C U131A	-0.49
U129C U131G	0.298
G117C A118C	-3.06
G117C A118G	-3.04
C124A U131G	1.63
G117U A121C	-2.4

Variant	polymerase ribozyme fitness (log ratio)
C123A U125C	0.193
G120A U132A	1.97
A118G G122A U129A	-1.35
G113U G122C C123A	-2.42
C114G U130A	-2.22
C123A U125C U129G	-1.5
C123U G135C	1.48
C123U G135U	-0.4
U129C U134G	1.11
G128C U133A	-2.85
G117C C123U	-4.89
U116A U130C	-2.68
G117C C124U	-3.55
G120A G128U	-0.62
G117A U131G	-1.55
G135U	-0.939
G135C	0.446
G135A	-0.639
U129C U132A	-0.43
U129C U133G	0.0769
C124U U133G	0.97
A119C C124G	-2.41
A119C C124A	-2.4
C124U U129A	-0.35

Variant	polymerase ribozyme fitness (log ratio)
U116A U133C	-3.8
C114U G120U	-2.8
G120A G122C	-0.571
A119C C123G	-1.25
G117U U126G	-5.92
G122U C124U	0.953
G122U C124A	1.69
G122U C124G	-0.864
G120A G127A U129C	-1.04
A118U C123A U130C	-0.0514
C114A G135U	-1.88
C115A G122U U132C	-0.273
U126G G127A	-2.54
C115A C123G	1.01
U116G A119G	1.79
U132G U133A	0.0135
C114A G127U	-3.82
U132A	-0.0436
U132G	-2.28
U132C	-0.134
U116G U126C	-3.51
U126G U130G	-3.64
C114U A119C	-6.28
U126G U129A	-2.97

Variant	polymerase ribozyme fitness (log ratio)
G120C C123G	0.469
G120C C123A	0.937
C115G G117A G135A	-3.04
G127C	-1.03
G127A	-1.25
G127U	-0.639
U116G U129G	-4.36
C114U G127U	-3.69
G127C G128A	-1.79
A121G U132A	1.94
C115U G135U	-1.91
A119U C124A	1.28
A121C G128U	0.545
G117A U133G	-0.981
U125A U131G	0.203
U125A U131C	-0.281
C115U G128C	-3.16
C114A A119G C124G	0.223
C115A A119G	-0.948
C114U C124G	-0.85
G117U A118U	-2.66
C114G U130G U133A	-2.19
G117A C124U	-0.187
G117C C124A G127U	-4.29

Variant	polymerase ribozyme fitness (log ratio)
U116G A121C	-0.876
U116G A121G	-0.679
G120A A121C	-0.98
A119U G128C	-2.46
U131G U133A	-0.289
G117U C123G	-1.56
G117U C123A	-2.17
A119U	-0.349
A119G	1.12
A119C	-4.38
U134A	0.465
U134G	0.625
U134C	-0.304
C115G G117C	-5.84
C115U C124U	-1.17
C115G G135U	-2.97
G127C U130C	0.0399
C114A A119G	0.218
A121G U129C	0.0991
C115A U125G	0.221
G127U U129A U130C	-1.27
U116C G120U	0.377
U125G	-1.01
U125C	-1.8

Variant	polymerase ribozyme fitness (log ratio)
U125A	-0.431
C114G C123A	-1.74
C114G C123U	-4.31
C114G G120U	-3.34
C115A U133A	0.127
C114A C115G G122C G127U	-5.32
C115G U133G	-0.9
A119G U132A	1.24
C114U U130A	-2.7
G113U G122C	-2.73
G120U G122U	0.765
C123U U125G	1.08
C115U U125A	-0.551
C114U G117C U133A	-5.74
U116G G120C U129A	-2.49
G120C U130G	0.395
C114U C123A	-1.94
U116C G117C	-2.2
C114U A121U	-1.32
C123U U134C	1.29
G117C C123U U126A	-5.9
A121C U130A	0.644
A119U G135U	-1.1
